Experiment [1] addresses T1, TIGIT on cells (human primary T cells, PBMC, NK cells; Promega TIGIT effector cells) (human) (UniProt Q495A1).
T1 sequence: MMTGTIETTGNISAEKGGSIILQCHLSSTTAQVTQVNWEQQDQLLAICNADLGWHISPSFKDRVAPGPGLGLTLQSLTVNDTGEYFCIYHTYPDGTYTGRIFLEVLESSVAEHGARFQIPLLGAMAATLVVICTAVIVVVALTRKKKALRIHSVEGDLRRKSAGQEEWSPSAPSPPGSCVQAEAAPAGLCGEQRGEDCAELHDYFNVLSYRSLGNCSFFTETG

The target in experiment [2] is T2, recombinant human TIGIT (Sino Biological) (human, UniProt Q495A1 22-138).
T2 construct: Bought protein; NP_776160.2; also called human TIGIT antigen; hTIGIT
T2 sequence: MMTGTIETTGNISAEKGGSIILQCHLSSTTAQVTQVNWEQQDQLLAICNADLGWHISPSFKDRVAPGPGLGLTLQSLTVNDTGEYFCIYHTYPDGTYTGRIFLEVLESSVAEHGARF
Kind of experiment: SPR (Biacore T200), single cycle kinetics, IgG from supernatant captured on anti-human chip, TIGIT as analyte, 1:1 fit. (SPR reads the build-up and loss of mass on a sensor chip optically.)

The target in experiment [3] is T3, TIGIT on cells (human primary T cells, PBMC, NK cells; Promega TIGIT effector cells) (human, UniProt Q495A1 22-244).
T3 sequence: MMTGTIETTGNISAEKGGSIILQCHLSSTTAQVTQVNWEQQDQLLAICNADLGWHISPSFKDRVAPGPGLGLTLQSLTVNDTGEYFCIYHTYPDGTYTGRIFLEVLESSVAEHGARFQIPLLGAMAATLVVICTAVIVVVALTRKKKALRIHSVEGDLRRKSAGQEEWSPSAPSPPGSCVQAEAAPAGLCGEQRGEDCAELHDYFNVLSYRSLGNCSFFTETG
Kind of experiment: cell-based or functional assay.

For experiment [4], the target named is T3, TIGIT on cells (human primary T cells, …). Kind of experiment: cell-based or functional assay. This is another data set of the same source.
For experiment [5], the target named is T2, recombinant human TIGIT (Sino …). The experiment is described as follows: SPR single cycle kinetics; KD divided by KD of the VH0/Vκ0 chimeric antibody.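 Also: biacore T200 SPR at 25 °C, IgG captured on anti-human chip, TIGIT analyte in four rising concentrations, 210 s association each, 900 s dissociation.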
In experiment [6] the target is T4, recombinant human TIGIT (Acrobiosystems) (human, UniProt Q495A1 22-141).
T4 construct: Bought protein; also called hTIGIT; human TIGIT antigen
T4 sequence: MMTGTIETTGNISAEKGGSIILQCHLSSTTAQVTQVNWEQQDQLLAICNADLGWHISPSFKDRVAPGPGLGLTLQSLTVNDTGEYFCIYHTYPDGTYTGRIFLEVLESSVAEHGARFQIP
Kind of experiment: SPR (Biacore T200), multi-cycle kinetics, purified IgG captured on anti-human IgG CM5 chip, TIGIT as analyte, 1:1 fit.

The target in experiment [7] is T3, TIGIT on cells (human primary T cells, …). The experiment is described as follows: cell-based or functional assay. This is another data set of the same source.
Experiment [8] has the same target. The experiment is described as follows: cell-based or functional assay. This is another data set of the same source.
Experiment [9] has as its target T1, TIGIT on cells (human primary T cells, PBMC, NK cells; Promega TIGIT effector cells) (human). This is another data set of the same source.
Experiment [10] shares this target. This is another data set of the same source.

Read-outs that look alike come from different tables or passages of the source.

The Kd is the free concentration of one partner at which half of the binding sites on the other are occupied at equilibrium, for simple one-to-one binding. As a reminder, the koff is a measure of how fast the partners let go of each other. One may read the kon as the second-order rate constant of association.

Regarding MBSA43 control (antibody), the EC50, NFAT reporter luminescence (TIGIT effector cells + CD155 aAPC/CHO-K1 cells; blocked ligand PVR/CD155) in experiment [1] amounted to 1.24 µg/mL.

B1: anti-TIGIT 7A6 VH3/Vk5 humanized antibody (human IgG1, kappa) (antibody, V domains shown)
VH: QVQLQESGPGLVKPSQTLSLTCTVTGYSITSDYAWNWIRQPPGKGLEWMGYISYSGSARYNPSLKSRVTISRDTSKNQFSLKLSSVTAEDTATYYCARKGYPAYFAYWGQGTLVTVSS
VL: DIQMTQSPSSLSASVGDRVSITCKASQDVSTAVAWYQQKPGQAPRLLIYSASYRYTGVPDRFSGSGSGTDFTLTISSLQPEDFATYYCQHHYSTPYTFGQGTKLEIKR
notes: also called VH3Vκ5; 7A6 VH3/Vk5-IgG1
With B1, in experiment [2], the Kd was 0.871 nM, the koff was found to be 0.00161 s⁻¹ and the kon came to 1.85e+06 M⁻¹ s⁻¹. Also, the “EC50 of the mixture with nivolumab (both antibodies at the same concentration), NFAT reporter luminescence (PD-1+TIGIT+ effector cells + PD-L1+CD155 aAPC/CHO-K1 cells)” value in experiment [3] was 0.581 µg/mL. Besides, in experiment [4], the “EC50 of the mixture with nivolumab (both antibodies at the same concentration), NFAT reporter luminescence (PD-1+TIGIT+ effector cells + PD-L1+CD155 aAPC/CHO-K1 cells)” value came to 0.594 µg/mL and the “EC50 of the mixture with pembrolizumab (both antibodies at the same concentration), NFAT reporter luminescence (PD-1+TIGIT+ effector cells + PD-L1+CD155 aAPC/CHO-K1 cells)” value was 0.38 µg/mL. In [5], the “Relative KD” value was 1.34. Moreover, in [6], the Kd came out at 0.0867 nM, the koff turned out to be 0.000177 s⁻¹ and the association rate constant (kon) amounted to 2.04e+06 M⁻¹ s⁻¹. For the same molecule, in [7], the “EC50 of the mixture with pembrolizumab (both antibodies at the same concentration), NFAT reporter luminescence (PD-1+TIGIT+ effector cells + PD-L1+CD155 aAPC/CHO-K1 cells)” value was determined as 0.399 µg/mL. The “EC50, NFAT reporter luminescence (TIGIT effector cells + CD155 aAPC/CHO-K1 cells; blocked ligand PVR/CD155)” value in experiment [8] is 0.521 µg/mL.

B2: TIG1 Arcus (antibody, from another filing, V domains shown)
VH: DVQLVESGGGLVQPGGSRKLSCAASGFTFSNFGMHWVRQAPEKGLEWVAFISSGSSSIYYADTVKGRFTISRDNPKNTLFLQMTSLRSEDTAMYYCARMRLDYYAMDYWGQGTSVTVSS
VL: DVQITQSPSYLAASPGETITINCRASKSISKYLAWYQEKPGKTNKLLIYSGSTLQSGIPSRFSGSGSGTDFTLTISSLEPEDFAMYYCQQHNEYPWTFGGGTKLEIK
Regarding B2, in experiment [9], the EC50 of the mixture with nivolumab (both antibodies at the same concentration), NFAT reporter luminescence (PD-1+TIGIT+ effector cells + PD-L1+CD155 aAPC/CHO-K1 cells) was determined as 0.923 µg/mL. Moreover, in experiment [10], the EC50 of the mixture with pembrolizumab (both antibodies at the same concentration), NFAT reporter luminescence (PD-1+TIGIT+ effector cells + PD-L1+CD155 aAPC/CHO-K1 cells) is 0.611 µg/mL. Further, the EC50, NFAT reporter luminescence (TIGIT effector cells + CD155 aAPC/CHO-K1 cells; blocked ligand PVR/CD155) in experiment [1] was determined as 3.74 µg/mL.

The record behind these values is US20250064909A1 (MEDIMABBIO, published 2025).
